# T1: BMV 1a protein, carboxy-terminal flag-tagged version (Brome mosaic virus, UniProt P03588 1-961)
# T1 sequence (looked up): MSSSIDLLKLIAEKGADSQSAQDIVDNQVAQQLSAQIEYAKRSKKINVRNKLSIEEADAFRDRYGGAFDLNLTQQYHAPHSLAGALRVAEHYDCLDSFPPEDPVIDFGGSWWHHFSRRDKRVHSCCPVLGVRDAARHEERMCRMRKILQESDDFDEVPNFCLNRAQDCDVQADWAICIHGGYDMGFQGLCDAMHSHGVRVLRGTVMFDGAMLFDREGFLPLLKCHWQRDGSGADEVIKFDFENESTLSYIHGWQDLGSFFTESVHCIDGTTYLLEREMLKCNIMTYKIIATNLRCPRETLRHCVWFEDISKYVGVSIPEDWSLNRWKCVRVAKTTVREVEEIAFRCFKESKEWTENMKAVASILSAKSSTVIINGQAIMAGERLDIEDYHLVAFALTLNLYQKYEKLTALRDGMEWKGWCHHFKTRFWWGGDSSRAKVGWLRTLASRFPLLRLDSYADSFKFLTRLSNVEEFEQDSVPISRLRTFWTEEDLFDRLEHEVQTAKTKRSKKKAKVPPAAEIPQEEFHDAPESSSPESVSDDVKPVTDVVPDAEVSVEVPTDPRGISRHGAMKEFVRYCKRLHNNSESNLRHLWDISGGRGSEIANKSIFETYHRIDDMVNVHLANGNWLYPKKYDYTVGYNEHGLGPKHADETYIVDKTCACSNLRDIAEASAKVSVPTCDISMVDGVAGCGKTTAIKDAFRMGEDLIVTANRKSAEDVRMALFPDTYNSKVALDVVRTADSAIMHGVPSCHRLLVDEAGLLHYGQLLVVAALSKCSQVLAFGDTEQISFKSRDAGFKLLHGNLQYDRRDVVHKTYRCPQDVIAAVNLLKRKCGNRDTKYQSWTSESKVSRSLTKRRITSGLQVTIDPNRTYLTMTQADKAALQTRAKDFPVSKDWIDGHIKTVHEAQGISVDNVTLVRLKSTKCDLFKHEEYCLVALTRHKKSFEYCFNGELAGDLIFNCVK
# Legend:
# [1] = target: T1, BMV 1a protein, carboxy-terminal …; test: co-IP
# [2] = target: T1, BMV 1a protein, carboxy-terminal …; test: co-IP; remark: listed apart in the source
Binder,fold enrichment compared with “Flag only” control [1] [fold],fold enrichment compared with “Flag only” controls [2] [fold]
"Lsm1 (natural protein, S. cerevisiae (endogenous in YPH500), UniProt P47017 1-172, looked up) MSANSKDRNQSNQDAKRQQQNFPKKISEGEADLYLDQYNFTTTAAIVSSVDRKIFVLLRDGRMLFGVLRTFDQYANLILQDCVERIYFSEENKYAEEDRGIFMIRGENVVMLGEVDIDKEDQPLEAMERIPFKEAWLTKQKNDEKRFKEETHKGKKMARHGIVYDFHKSDMY",2,7
"Pat1 (natural protein, S. cerevisiae (endogenous in YPH500), UniProt P25644 1-796, looked up) MSFFGLENSGNARDGPLDFEESYKGYGEHELEENDYLNDETFGDNVQVGTDFDFGNPHSSGSSGNAIGGNGVGATARSYVAATAEGISGPRTDGTAAAGPLDLKPMESLWSTAPPPAMAPSPQSTMAPAPAPQQMAPLQPILSMQDLERQQRQMQQQFMNFHAMGHPQGLPQGPPQQQFPMQPASGQPGPSQFAPPPPPPGVNVNMNQMPMGPVQVPVQASPSPIGMSNTPSPGPVVGATKMPLQSGRRSKRDLSPEEQRRLQIRHAKVEKILKYSGLMTPRDKDFITRYQLSQIVTEDPYNEDFYFQVYKIIQRGGITSESNKGLIARAYLEHSGHRLGGRYKRTDIALQRMQSQVEKAVTVAKERPSKLKDQQAAAGNSSQDNKQANTVLGKISSTLNSKNPRRQLQIPRQQPSDPDALKDVTDSLTNVDLASSGSSSTGSSAAAVASKQRRRSSYAFNNGNGATNLNKSGGKKFILELIETVYEEILDLEANLRNGQQTDSTAMWEALHIDDSSYDVNPFISMLSFDKGIKIMPRIFNFLDKQQKLKILQKIFNELSHLQIIILSSYKTTPKPTLTQLKKVDLFQMIILKIIVSFLSNNSNFIEIMGLLLQLIRNNNVSFLTTSKIGLNLITILISRAALIKQDSSRSNILSSPEISTWNEIYDKLFTSLESKIQLIFPPREYNDHIMRLQNDKFMDEAYIWQFLASLALSGKLNHQRIIIDEVRDEIFATINEAETLQKKEKELSVLPQRSQELDTELKSIIYNKEKLYQDLNLFLNVMGLVYRDGEISELK",4.5,25

# — article PMC4509936 (RNA, 2015)
